This is an account of results in patent US20050123549A1 (IMMUNOGEN, published 2005).

The target of test [1] is T1, Muc1 mucin carrying the CA6 sialoglycotope (human, UniProt P15941 24-1255, sialylated O-linked carbohydrate carrying the CA6 epitope; positions not stated).
T1 construct: whole, on cells; Target of DS6 on CA6-positive human cell lines (flow cytometry) and in their lysates (dot blots, immunoprecipitation); also called CA6 antigen; DS6 antigen
The test is described as follows: flow cytometry on T98G cells, apparent Kd. On the procedure: (§1) Cells ([…]) were incubated, on ice for 3-4 h, with serially diluted concentrations of the DS6 antibody prepared in FACS buffer (2% goat serum, RPMI) into 96-well plates. The cells were spun down in a table top centrifuge at 1500 rpm for 5 min at 4° C. After removing the media, the wells were then refilled with 150 μl of FACS buffer. The wash step was then repeated. FITC-labeled goat anti-mouse IgG (Jackson Immunoresearch) was diluted 1:100 to FACS buffer and incubated with the cells for 1 h on ice. The plate was covered in foil to prevent photobleaching of the signal. After two washes, the cells were fixed with 1% formaldehyde and analyzed on a flow cytometer.

Test [2] addresses T1, Muc1 mucin carrying the CA6 …. The experiment in a line: flow cytometry on WISH cells, apparent Kd. The protocol:
(§2) Human cell lines were obtained from the American Type Culture Collection (ATCC) with the exception of OVCAR5 (Kearse et al., Int. J. Cancer 88(6):866-872 (2000)), OVCAR8 and IGROV1 cells (M. Seiden, Massachusetts General Hospital). All cells were grown in RPMI 1640 supplemented with 4 mM L-glutamine, 50 U/ml penicillin, 50 μg/ml streptomycin (Cambrex Bio Science, Rockland, Me.) and 10% v/v fetal bovine serum (Atlas Biologicals, Fort Collins, Colo.), referred hereafter as culture media. Cells were maintained in a 37° C., 5% CO₂ humidified incubator.
as §1

The target is the same in test [3]. The experiment in a line: flow cytometry on HeLa cells, apparent Kd. On the procedure:
as §1
A general note: In flow cytometry, cells or beads pass a laser one at a time.

For test [4] the target is unchanged. The test is described as follows: flow cytometry on BT-483 cells, apparent Kd. The protocol: as §1
Test [5] has the same target. The test is described as follows: flow cytometry on CAMA-1 cells, apparent Kd. On the procedure:
as §2, §1

For test [6] the target is unchanged. The experiment in a line: flow cytometry on Caov-3 cells, apparent Kd.
Test [7] has the same target. The experiment in a line: flow cytometry on OVCAR5 cells, apparent Kd. On the procedure:
as §2, §1

For test [8] the target is unchanged. The experiment in a line: flow cytometry on BT-483 cells, apparent Kd. The protocol: as §1
This is another data set of the same source.

For test [9] the target is unchanged. The test is described as follows: flow cytometry on OVCAR5 cells, apparent Kd. On the procedure:
as §1
The source holds these as a separate data set.

For test [10] the target is unchanged. The experiment in a line: flow cytometry on SU.86.86 cells, apparent Kd. The protocol: as §1

B1: murine DS6 anti-CA6 monoclonal antibody (antibody, IgG1, V domains shown)
VH: QAYLQQSGAELVRSGASVKMSCKASGYTFTSYNMHWVKQTPGQGLEWIGYIYPGNGATNYNQKFKGKATLTADPSSSTAYMQISSLTSEDSAVYFCARGDSVPFAYWGQGTLVTVSA
VL: QIVLTQSPAIMSASPGEKVTITCSAHSSVSFMHWFQQKPGTSPKLWIYSTSSLASGVPARFGGSGSGTSYSLTISRMEAEDAATYYCQQRSSFPLTFGAGTKLELKR
notes: Whole murine monoclonal IgG from the DS6 hybridoma (ATCC PTA-4449); the 3' heavy chain cloning primer was BamIgG1 and the light chain primer was kappa; also called DS6 antibody; muDS6
In the case of B1, the Kd in [1] was determined as 0.177 nM; in [2] it was 2.38 nM; in test [3] it was 0.694 nM; in test [4] it was 13.7 nM; in test [5], 2.33 nM; in test [6] it was 5.48 nM. The Kd in test [7] amounted to 1.47 nM; in [8], 13.7 nM; in test [9], 1.47 nM; in test [10], 1.04 nM.
